Common to all, as to settings: partners not purified
For assay [1], the target named is T1, Smurf2 Smad-binding domain (amino acids 252–330) on the Flag-thioredoxin scaffold (UniProt Q9HAU4 252-330).
T1 construct: Smurf2, amino acids 252–330; also called Smurf2 aa252–330; TrxSmurf2; source: HEK-293, transfected, in lysate
In words: co-IP; LUMIER: Renilla luciferase-Smad3 and Flag-tagged partner co-expressed with constitutively active Alk5 in HEK-293; Flag protein captured from cleared lysate (TNE: 10 mM Tris-HCl pH 7.8, 150 mM NaCl, 1 mM EDTA, 1% Igepal CA-630) on anti-Flag 96-well plates, 2 h at 4 °C; co-precipitated Renilla luciferase activity, TrxGA background subtracted, percent of wild-type Smad3.

In assay [2] the target is T2, SARA Smad-binding domain (amino acids 665–721) on the 3xFlag-thioredoxin scaffold (UniProt O95405 767-823).
T2 construct: SARA, amino acids 665–721; cloned into the unique RsrII site of pCI-3xFLAG-Trx; also called SARA aa665–721; TrxSARA; source: HEK-293, transfected, in lysate
T2 sequence (looked up): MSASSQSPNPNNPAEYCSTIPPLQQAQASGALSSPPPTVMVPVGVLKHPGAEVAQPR
Described as above.

Assay [3] addresses T3, Ski Smad-binding domain (amino acids 2–56) on the 3xFlag-thioredoxin scaffold (UniProt P12755 2-56).
T3 construct: Ski, amino acids 2–56; cloned into the unique RsrII site of pCI-3xFLAG-Trx; also called Ski aa2–56; TrxSki; source: HEK-293, transfected, in lysate
T3 sequence (looked up): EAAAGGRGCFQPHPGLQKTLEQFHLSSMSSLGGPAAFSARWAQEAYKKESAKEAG
Described as above.

Assay [4] concerns the target T2, SARA Smad-binding domain (amino acids …). In words: co-IP; LUMIER as a1 but without co-expression of the activated Alk5 kinase (Smad3 not phosphorylated); percent of phosphorylated wild-type Smad3.
The target in assay [5] is T4, Flag-Smad4, full length (UniProt Q13485 1-552).
T4 construct: Smad4; plasmid pCMV5-Flag-Smad4 (from J. Massagué); also called Smad4 FL; source: HEK-293, transfected, in lysate
T4 sequence (looked up): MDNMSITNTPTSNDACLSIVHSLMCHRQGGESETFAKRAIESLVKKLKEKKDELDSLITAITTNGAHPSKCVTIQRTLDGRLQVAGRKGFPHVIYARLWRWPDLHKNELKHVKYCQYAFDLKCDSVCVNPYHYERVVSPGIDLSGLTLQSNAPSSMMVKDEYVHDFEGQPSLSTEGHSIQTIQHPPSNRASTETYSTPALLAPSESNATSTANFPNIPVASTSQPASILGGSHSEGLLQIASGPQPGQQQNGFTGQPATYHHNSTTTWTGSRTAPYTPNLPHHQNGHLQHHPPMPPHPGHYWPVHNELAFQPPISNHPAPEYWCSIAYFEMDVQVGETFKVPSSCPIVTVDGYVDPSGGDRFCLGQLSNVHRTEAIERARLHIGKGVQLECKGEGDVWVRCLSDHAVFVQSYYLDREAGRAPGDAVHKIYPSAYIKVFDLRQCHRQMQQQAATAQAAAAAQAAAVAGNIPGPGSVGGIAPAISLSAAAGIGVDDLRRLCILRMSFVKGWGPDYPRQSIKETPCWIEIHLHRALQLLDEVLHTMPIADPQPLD
In words: co-IP; LUMIER: Renilla luciferase-Smad3 and Flag-tagged partner co-expressed with constitutively active Alk5 in HEK-293; Flag protein captured from cleared lysate (TNE: 10 mM Tris-HCl pH 7.8, 150 mM NaCl, 1 mM EDTA, 1% Igepal CA-630) on anti-Flag 96-well plates, 2 h at 4 °C; co-precipitated Renilla luciferase activity, TrxGA background subtracted, percent of wild-type Smad3.

T1 sequence (Q9HAU4 252-330): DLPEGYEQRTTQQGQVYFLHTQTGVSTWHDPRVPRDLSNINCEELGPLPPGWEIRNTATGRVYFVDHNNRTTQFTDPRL

B1: Renilla luciferase-Smad3 wild type, co-expressed with constitutively active Alk5 (phosphorylated Smad3) (natural protein, UniProt P84022 1-425, looked up)
chain: MSSILPFTPPIVKRLLGWKKGEQNGQEEKWCEKAVKSLVKKLKKTGQLDELEKAITTQNVNTKCITIPRSLDGRLQVSHRKGLPHVIYCRLWRWPDLHSHHELRAMELCEFAFNMKKDEVCVNPYHYQRVETPVLPPVLVPRHTEIPAEFPPLDDYSHSIPENTNFPAGIEPQSNIPETPPPGYLSEDGETSDHQMNHSMDAGSPNLSPNPMSPAHNNLDLQPVTYCEPAFWCSISYYELNQRVGETFHASQPSMTVDGFTDPSNSERFCLGLLSNVNRNAAVELTRRHIGRGVRLYYIGGEVFAECLSDSAIFVQSPNCNQRYGWHPATVCKIPPGCNLKIFNNQEFAALLAQSVNQGFEAVYQLTRMCTIRMSFVKGWGAEYRRQTVTSTPCWIELHLNGPLQWLDKVLTQMGSPSIRCSSVS
modifications: phosphorylated by the co-expressed activated Alk5 kinase (sites not given)
notes: Smad3; plasmid pCMV5-hRLuc-Smad3 (from J. Wrana); also called Smad3 WT+Alk5; Renilla-Smad3; source: HEK-293, transfected together with constitutively active Alk5, in lysate
For the molecule B1, the “percent binding relative to wild-type Smad3” value in assay [1], in assay [2] and in assay [3] was 100% each time.

B2: Renilla luciferase-Smad3 wild type, without Alk5 (not phosphorylated) (natural protein, UniProt P84022 1-425, looked up)
chain: MSSILPFTPPIVKRLLGWKKGEQNGQEEKWCEKAVKSLVKKLKKTGQLDELEKAITTQNVNTKCITIPRSLDGRLQVSHRKGLPHVIYCRLWRWPDLHSHHELRAMELCEFAFNMKKDEVCVNPYHYQRVETPVLPPVLVPRHTEIPAEFPPLDDYSHSIPENTNFPAGIEPQSNIPETPPPGYLSEDGETSDHQMNHSMDAGSPNLSPNPMSPAHNNLDLQPVTYCEPAFWCSISYYELNQRVGETFHASQPSMTVDGFTDPSNSERFCLGLLSNVNRNAAVELTRRHIGRGVRLYYIGGEVFAECLSDSAIFVQSPNCNQRYGWHPATVCKIPPGCNLKIFNNQEFAALLAQSVNQGFEAVYQLTRMCTIRMSFVKGWGAEYRRQTVTSTPCWIELHLNGPLQWLDKVLTQMGSPSIRCSSVS
notes: Smad3; also called Smad3 WT, No Alk5; source: HEK-293, transfected without Alk5, in lysate
With B2, in assay [4], the “percent binding relative to wild-type Smad3” value amounted to 78%.

B3: Renilla luciferase-Smad3 QPSMT/SE mutant (residues 252–256 and 266–267 changed to the Smad1 equivalents STSVL/NKN) (natural protein, UniProt P84022 1-425, looked up)
chain: MSSILPFTPPIVKRLLGWKKGEQNGQEEKWCEKAVKSLVKKLKKTGQLDELEKAITTQNVNTKCITIPRSLDGRLQVSHRKGLPHVIYCRLWRWPDLHSHHELRAMELCEFAFNMKKDEVCVNPYHYQRVETPVLPPVLVPRHTEIPAEFPPLDDYSHSIPENTNFPAGIEPQSNIPETPPPGYLSEDGETSDHQMNHSMDAGSPNLSPNPMSPAHNNLDLQPVTYCEPAFWCSISYYELNQRVGETFHASSTSVLVDGFTDPSNNKNRFCLGLLSNVNRNAAVELTRRHIGRGVRLYYIGGEVFAECLSDSAIFVQSPNCNQRYGWHPATVCKIPPGCNLKIFNNQEFAALLAQSVNQGFEAVYQLTRMCTIRMSFVKGWGAEYRRQTVTSTPCWIELHLNGPLQWLDKVLTQMGSPSIRCSSVS
notes: Smad3 with two stretches replaced by those of Smad1; source plasmid pcDNA3-Flag-Smad3(STSVL/NKN) from K. Miyazono; assayed as Renilla fusion; also called Smad3(STSVL/NKN); Smad1/3 chimeric protein; source: HEK-293, transfected together with constitutively active Alk5, in lysate
Turning to B3, the “percent binding relative to wild-type Smad3” value stood at 132% in assay [5], 86% in assay [1], 61% in assay [2] and 4% in assay [3].

These data come from paper PMC3176292, “Mutations in Protein-Binding Hot-Spots on the Hub Protein Smad3 Differentially Affect Its Protein Interactions and Smad3-Regulated Gene Expression” (PLoS ONE, 2011).
